Among the data in patent US20220387578A1 (VANDERBILT UNIVERSITY, published 2022) are Kd and EC50 values, retold here.

In assay [1] the target is H1 HA A/South Carolina/1/1918 (H1N1) (influenza A virus, UniProt Q9WFX3 18-529). Put plainly: BLI, biotinylated HA on streptavidin sensor.
Assay [2] deals with T1, H3 HA A/Hong Kong/1/1968 (H3N2), recombinant soluble trimer (influenza A virus, UniProt Q91MA7 17-530). Put plainly: ELISA on coated recombinant HA. A general note: An ELISA detects its analyte on a solid surface through an enzyme-linked reagent.
Assay [3] deals with T2, eHead_H1Solomon (wild-type H1 head domain monomer) (influenza A virus, UniProt B4URD6 65-276).
T2 chain: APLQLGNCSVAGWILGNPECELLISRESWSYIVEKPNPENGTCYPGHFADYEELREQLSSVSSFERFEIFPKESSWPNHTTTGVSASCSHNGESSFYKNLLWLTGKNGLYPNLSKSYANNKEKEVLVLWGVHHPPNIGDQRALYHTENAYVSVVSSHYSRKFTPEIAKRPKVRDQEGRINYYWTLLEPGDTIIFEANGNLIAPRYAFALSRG
The experiment in a line: SPR. For orientation: SPR reads the build-up and loss of mass on a sensor chip optically.

The target in assay [4] is T3, eHead-H3HK68_v1 (wild-type H3 head domain monomer) (influenza A virus, UniProt Q91MA7 53-335). The experiment in a line: SPR.
Assay [5] has as its target T2, eHead_H1Solomon (wild-type H1 head …). The experiment in a line: SPR (Example 4, Table E).
In assay [6] the target is T3, eHead-H3HK68_v1 (wild-type H3 head …). Put plainly: SPR (Example 4, Table E).
Assay [7] addresses T1, H3 HA A/Hong Kong/1/1968 (H3N2), …. Put plainly: BLI, biotinylated HA on streptavidin sensor. On the technique in general: Biolayer interferometry detects binding as a change in optical thickness at a sensor tip.
In assay [8] the target is A/Duck/Czechoslovakia/1956 (Influenza A virus). Put plainly: ELISA on coated recombinant HA.
Assay [9] deals with A/Puerto Rico/8/1934 (Influenza A virus). The experiment in a line: ELISA on coated recombinant HA.
The target in assay [10] is A/Turkey/Ontario/6118/1967 (Influenza A virus). The experiment in a line: ELISA on coated recombinant HA.
In assay [11] the target is H5 HA A/Vietnam/1203/2004 (H5N1), recombinant (influenza A virus). The experiment in a line: ELISA on coated recombinant HA.
In assay [12] the target is H5 HA A/Indonesia/05/2005 (H5N1), recombinant (influenza A virus). Put plainly: ELISA on coated recombinant HA.
For assay [13], the target named is H7 HA A/New York/107/2003, recombinant (influenza A virus). Put plainly: ELISA on coated recombinant HA.
Assay [14] deals with T4, H1 HA A/Texas/36/1991 (H1N1), recombinant soluble trimer (influenza A virus).
T4 construct: extracellular domain
The experiment in a line: ELISA on coated recombinant HA.

Assay [15] deals with H2 HA A/Singapore/1/1957, recombinant soluble trimer (influenza A virus). Put plainly: ELISA on coated recombinant HA.
Assay [16] deals with T1, H3 HA A/Hong Kong/1/1968 (H3N2), …. Put plainly: ELISA on coated recombinant HA. This is another data set of the same source.
The target in assay [17] is T5, H3 HA A/Texas/50/2012, recombinant soluble trimer (influenza A virus).
T5 construct: extracellular domain
The experiment in a line: ELISA on coated recombinant HA.

Assay [18] concerns the target H12 HA A/duck/Alberta/60/1976, recombinant (influenza A virus). Put plainly: ELISA on coated recombinant HA.

Where two headings read alike, the source gives them in different places. Where only a bound is given, the exact number is not on record here.

B1: rFluA-20 Fab (Fab, V domains shown)
VH: QVQLQESGPGLVKPSETLSLTCSVSGVSVTSDIYYWTWIRQPPGKGLEWIGYIFYNGDTNYNPSLKSRVTMSIDTSKNEFSLRLTSVTAADTAVYFCARGTEDLGYCSSGSCPNHWGQGTLVTVSS
VL: DIQMTQSPSSLSASIGDRVTITCRPSQNIRSFLNWFQHKPGKAPKLLIYAASNLQSGVPSRFSGSGSGTEFTLTIRSLQPEDFATYYCQQSYNTPPTFGQGTKVEIK
Regarding B1, binding in assay [1] was characterised by a dissociation constant (Kd) of 46 nM.

B2: FluA-20-UCA IgG (unmutated common ancestor of FluA-20) (antibody, V domains shown)
VH: QVQLQESGPGLVKPSETLSLTCTVSGGSVSSGSYYWSWIRQPPGKGLEWIGYIYYSGSTNYNPSLKSRVTISVDTSKNQFSLKLSSVTAADTAVYYCARGTEDLGYCSGGSCPNHWGQGTLVTVSS
VL: not shown
As to B2, the concentration for a half-maximal effect (EC50) (usually the concentration giving half of the maximal effect) in assay [2] was 0.021 µg/mL.

B3: FluA20_UCA (as used in the SPR experiments of Example 4) (antibody, V domains shown)
VH: QVQLQESGPGLVKPSETLSLTCTVSGGSVSSGSYYWSWIRQPPGKGLEWIGYIYYSGSTNYNPSLKSRVTISVDTSKNQFSLKLSSVTAADTAVYYCARGTEDLGYCSGGSCPNHWGQGTLVTVSS
VL: not shown
Regarding B3, the dissociation constant (Kd) (commonly a measure of binding affinity in units of concentration) in [3] was 500 nM; in assay [4], 530 nM; in assay [5] it was roughly 500 nM; in [6] it was roughly 500 nM.

B4: FluA-20 UCA Fab (Fab, V domains shown)
VH: QVQLQESGPGLVKPSETLSLTCTVSGGSVSSGSYYWSWIRQPPGKGLEWIGYIYYSGSTNYNPSLKSRVTISVDTSKNQFSLKLSSVTAADTAVYYCARGTEDLGYCSGGSCPNHWGQGTLVTVSS
VL: not shown
Take B4: the figures for the Kd in assay [1] and in assay [7] were 937 nM and 486 nM, respectively.

B5: mAb H5.31 (hybridoma IgG) (antibody, V domains shown)
VH: EVQLVQSGGGLVQPGGSLRLSCEASRFTSSSYWITWVRQAPGKGLEWVANIKQDGSEKYFVDSVKGRFTISRDNASNSLYLQMSSLRAEDTAVYYCARGFLERLLLGRQGAYYYGMDVWGQGTTVTVSS
VL: DIQMTQSPSSLSASVGDRVTMTCRASQSISSSLNWYQQKPGKAPKLLIYAASNLQSGVPSRFSGSGSGTDFTLTISSLQPEDFATYYCQQSYTMPPELTFGGGTKVQIK
As to B5, the 50% effective concentration (EC50) in assay [8] is 0.006 µg/mL; in assay [9], 0.004 µg/mL; in [10] it was 0.004 µg/mL; in assay [11], 0.006 µg/mL; in [12], greater than 2.5 µg/mL; in assay [13] it was greater than 2.5 µg/mL. Further, the concentration giving a half-maximal response (EC50) amounted to 0.006 µg/mL in assay [14]; 0.004 µg/mL in assay [15]; 0.009 µg/mL in assay [16]; 0.936 µg/mL in assay [17]; 0.002 µg/mL in assay [18].

B6: mAb H5.28 (hybridoma IgG) (antibody, V domains shown)
VH: EVQLVESGGGLVQPGGSLRLSCAASGFTFSTYWMTWVRQAPGKGLEWVANINQDGGEKYFVDSVKGRFTISRDNAKNSLFLQMNTLRAEDTAVYYCARGFLERLLLGRQGAYYYGMDVWGQGTTVTVSS
VL: DIQMTQSPSSLSASVGDRVSMTCRASQIISSSLNWYQQKPGKAPKLLIYAASNLQSGVPSRFSGSGSGTDFTLTISSLQPEDFATYYCQQSYSTPPELTFGGGTKVEIK
For B6, the half-maximal effective concentration (EC50) is 0.021 µg/mL in assay [8]; 0.01 µg/mL in [9]; greater than 2.5 µg/mL in assay [10]; 0.182 µg/mL in [11]; greater than 2.5 µg/mL in assay [12]; greater than 2.5 µg/mL in assay [13]. The EC50 in assay [14] was 0.022 µg/mL; in assay [15], 0.014 µg/mL; in assay [16] it was greater than 2.5 µg/mL; in assay [17] it was greater than 2.5 µg/mL; in [18] it was 0.269 µg/mL.
